Two substances from paper PMC12692543 can be followed below.

Assay [1] has as its target rhFrizzled-4/FC Chimera (human) (UniProt Q9ULV1). Description: ELISA; rhFrizzled-4/Fc coated on a 96-well plate overnight; Norrin preparations as extracted from bacteria, BEFORE refolding, serially diluted (0.8–500 ng/mL) in 1% BSA or casein in PBS, 2 h; detected with biotinylated Norrin antibody and streptavidin–HRP; result as percent of a comparison control (R&D Systems Norrin).

Assay [2] shares this target. Description: ELISA; rhFrizzled-4/Fc coated on a 96-well plate overnight; Norrin preparations AFTER denaturation and refolding with disulfide reshuffling (GSH/GSSG, 1 M arginine), serially diluted (0.8–500 ng/mL) in 1% BSA or casein in PBS, 2 h; detected with biotinylated Norrin antibody and streptavidin–HRP; result as percent of a comparison control (R&D Systems Norrin).

As to “MBP-linker-Norrin^K86P (intact, uncut fusion protein from plasmid construct Nor-w-Linker) (from UniProt Q00604 25-133)”, the percent of expected binding activity relative to comparison control (R&D Systems Norrin) in assay [1] came to 7%; in assay [2], 94%.
For “Norrin^K86P released from MBP-linker-Norrin by HRV3C protease (from UniProt Q00604 25-133) (natural protein)” the same measures were 14% and 101%.
